The values that follow come from paper doi:10.1101/2020.09.22.308395.

This assay addresses UDP-GlcNAc 4-epimerase (Gne) from Campylobacter jejuni (Campylobacter jejuni). Nature of the assay: SEC-MALLS.

By stoichiometry N is commonly meant a count of units in the complex or per binding partner. “UDP-GlcNAc 4-epimerase (Gne) from Campylobacter jejuni (enzyme)” displayed a stoichiometry N of 2.
